Measurements reported in PMC4226670.

Molecular target: GST-p53 (UniProt P04637)
Test: fluorescence polarization
Details: FP: 4 nM FAM duplex, 100 mM NaCl, 10 mM Tris-HCl pH 7.5, 10% glycerol, 5 mM DTT, 0.2 mg/mL BSA, room temperature; pull-down: 2 ug duplex with lysate, 90 min …

Chain of GST-p53 (P04637 whole entry): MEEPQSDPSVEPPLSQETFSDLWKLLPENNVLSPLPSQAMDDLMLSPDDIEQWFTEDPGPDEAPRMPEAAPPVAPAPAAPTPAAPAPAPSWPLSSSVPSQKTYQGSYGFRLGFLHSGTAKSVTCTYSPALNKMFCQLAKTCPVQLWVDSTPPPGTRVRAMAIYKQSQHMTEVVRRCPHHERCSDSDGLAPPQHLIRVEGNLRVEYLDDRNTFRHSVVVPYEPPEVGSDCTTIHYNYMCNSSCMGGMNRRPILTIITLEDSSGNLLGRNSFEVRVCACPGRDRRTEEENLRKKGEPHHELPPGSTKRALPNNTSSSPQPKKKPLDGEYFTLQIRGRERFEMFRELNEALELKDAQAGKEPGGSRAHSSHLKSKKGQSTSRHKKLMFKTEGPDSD

Work on “CGCGCCTGCAAGTCCTGACTTGTCCGCGGC (double strand) [PUMA promoter duplex, FAM]” yielded a Kd of 29.6 nM.
